Assay results taken from a protein production outcome set (Wang et al. 2014).

Test: label from the status in PepcDB records

For “MTASLEIRPFQETDLDFVRQLARQEDFAPGIGDIAIYANTANQGVWLAWQGDMPVGCIAAVKYNLDYGFMGLFVVHPDHRGGGVGRQLWDHALALLADVTCIGLEAAPSMVEFYQRQGFRKDSITTRRQHLRLEESSQHPTRRLLHRNDITIVPLKAISLDAVQAYDERHEISPRPHFLQQWLNHQAGDVFVAMDGSHQCHGYVRIRPCLLPIGQGWRIGPLLAEEPGIASLLLSNAMDRHKGIILIDTPGHNRSARTVAGAKGFRRMGATHRMYKGDLDNGHDQNIYGLACLELG”, the protein production was “failed”.

With “MTRAKAPMEGVKLNSLLKVEDFATQSQFLGVNPIWNNNSTQLVEPPSIVNDEEEETEPLLPVEFTLVERNLEDGLVEEIIFSSGGEIDVYDLQGLCDKVGWPRRPLVKLAAALKNSYMVATLHSVMKSSSDSDSSEGGDGEKQQEKKLIGMARATSDHAFNATIWDVLVDPEYQGQGLGKALVEKLVRALLQRDIGNISLFADSQVVDFYQNLGFEADPEGIKGMFWYPK” the protein production was “failed”.

With “MERAMEQLNRLTRSLRRARTVELPEDNETAVYTLMPMVMADQHRSVSELLSNSKFDVNYAFGRVKRSLLHIAANCGSVECLVLLLKKGANPNYQDISGCTPLHLAARNGQKKCMSKLLEYSADVNICNNEGLTAIHWLAVNGRTELLHDLVQHVTDVDVEDAMGQTALHVACQNGHKTTVQCLLDSGADINRPNVAGATPLYFACSHGQRDTAQILLLRGAKYLPDKNGVTPLDLCVQGGYGQTCEVLIQYHPRLFQTIVQMTQNEDLRENMLRQVLQHLSQQSESQYLKILTGLAEVATTNGHKLLSLSSSYEAQMKSLLRIVRIFCHVFRIGPSSPSNGMDMGYNGNKTPRSQVFKPLELLWHSLDEWLVLIATELMKNKEDSADITSILLKQKGQDQEASCISAFEPPGPGSYERLSTGPGESKPDVLAGKQEASADCQDVISVTANRLSAVIQAFYMCCSCQMPPGMTSPRFIEFVCKHDEVLKCFVNRNPKIIFDHFHFLLECPELMSRFMHIIKAQPFKDRCEWFYEHLHSGQPDSDMVHRPVSENDILLVHRDSIFRSSCEIVSKANCAKLKQGIAVRFHGEEGMGQGVVREWFDILSNEIVNPDYALFTQSYCYVFISIGTTFQPNSNSYVNPDHLNYFRFAGQILGLALNHRQLVNIYFTRSFYKHILGIPVNYQDVASIDPEYAKNLQWILDNDISDLGLELTFSVETDVFGAMEEVPLKPGGGSILVTQNNKAEYVQLVTELRMTRAIQPQINAFLQGFHMFIPPSLIQLFDEYELELLLSGMPEIDVNDWIKNTEYTSGYEREDPVIQWFWEVVEDMTQEERVLLLQFVTGSSRVPHGGFANIMGGSGLQNFTIAAVPYTPNLLPTSSTCINMLKLPEYPSKEILKDRLLVALHCGSYGYTMA” the protein production was “failed”.

With “MILSLNLLHKISPKLKKIPLNELCAALMDLGCEVETINSIKPSTNLVFAKVLEKTRHPNANHLNLVKVKANQKVYEIVCGANNFSVHNWVVLAKLNAELANGLKITPRELRGYVSNGMLCAYSEINPQATSFLTSTDLDGILVLDDNYDHYKTPNQIFNLDDVILDLSIPSNRNDLNGYFWIAKELCAYFDFEYVVDATINHRPHKEIIDVRILSDDVNSYGIIEVKNIQNYILKWNTKSILINNQIKVLNNFADNMNFLTLLTANPLHAFDARKISGQIVVKNAEEDAILLGLDQKEYLIKKGDLIIVDDQKILALAGIIGSNDSKIDATSTTAYIECANFNPMLIANTARRLKINTAAAMRFSKPLTNYVTKVTLKKLLANFKSDAKLIYYFKHSVHNVIKNKINQVSDFVGAEIDLDTAQTFLKRLGYKINKSNLITPSHRYDVLNEFDVYEDIMKKISIQEIKPQPISFDILNFENNLAYDFEKKVSDFLVDQGLFECKTYNLKNQTQAHEFNFFNFKQAYEINNPTSNMRSHLKLNNLNSLLEVLEYNQNQKNELENIFEISKINPVDSSQQTVLSIILCKPLINSKINDSLIVNNFVTTKALLHALLTKLNIDYAYDKNHVVNELYDNNQLALINANKQVFGFIGQLKNQVKKTYGLSNDIFIINLNLTSYLNQKQVITKVIKPSMYHDVIRDISVKLASDVDLNNIIANIKKIKNIRKVEISDLYIKDDGIIYTFKYYINDHLSNLSSEQIIIIEQEVNNYLKQF” the protein production was “failed”.
